2 molecules from US20230365647A1 (published 2023) can be followed below.

The experiment addresses T1, Mannose receptor C type 1 on human monocyte-derived dendritic cells (Homo sapiens, UniProt P22897 19-1456).
T1 construct: also called MRC-1
T1 sequence: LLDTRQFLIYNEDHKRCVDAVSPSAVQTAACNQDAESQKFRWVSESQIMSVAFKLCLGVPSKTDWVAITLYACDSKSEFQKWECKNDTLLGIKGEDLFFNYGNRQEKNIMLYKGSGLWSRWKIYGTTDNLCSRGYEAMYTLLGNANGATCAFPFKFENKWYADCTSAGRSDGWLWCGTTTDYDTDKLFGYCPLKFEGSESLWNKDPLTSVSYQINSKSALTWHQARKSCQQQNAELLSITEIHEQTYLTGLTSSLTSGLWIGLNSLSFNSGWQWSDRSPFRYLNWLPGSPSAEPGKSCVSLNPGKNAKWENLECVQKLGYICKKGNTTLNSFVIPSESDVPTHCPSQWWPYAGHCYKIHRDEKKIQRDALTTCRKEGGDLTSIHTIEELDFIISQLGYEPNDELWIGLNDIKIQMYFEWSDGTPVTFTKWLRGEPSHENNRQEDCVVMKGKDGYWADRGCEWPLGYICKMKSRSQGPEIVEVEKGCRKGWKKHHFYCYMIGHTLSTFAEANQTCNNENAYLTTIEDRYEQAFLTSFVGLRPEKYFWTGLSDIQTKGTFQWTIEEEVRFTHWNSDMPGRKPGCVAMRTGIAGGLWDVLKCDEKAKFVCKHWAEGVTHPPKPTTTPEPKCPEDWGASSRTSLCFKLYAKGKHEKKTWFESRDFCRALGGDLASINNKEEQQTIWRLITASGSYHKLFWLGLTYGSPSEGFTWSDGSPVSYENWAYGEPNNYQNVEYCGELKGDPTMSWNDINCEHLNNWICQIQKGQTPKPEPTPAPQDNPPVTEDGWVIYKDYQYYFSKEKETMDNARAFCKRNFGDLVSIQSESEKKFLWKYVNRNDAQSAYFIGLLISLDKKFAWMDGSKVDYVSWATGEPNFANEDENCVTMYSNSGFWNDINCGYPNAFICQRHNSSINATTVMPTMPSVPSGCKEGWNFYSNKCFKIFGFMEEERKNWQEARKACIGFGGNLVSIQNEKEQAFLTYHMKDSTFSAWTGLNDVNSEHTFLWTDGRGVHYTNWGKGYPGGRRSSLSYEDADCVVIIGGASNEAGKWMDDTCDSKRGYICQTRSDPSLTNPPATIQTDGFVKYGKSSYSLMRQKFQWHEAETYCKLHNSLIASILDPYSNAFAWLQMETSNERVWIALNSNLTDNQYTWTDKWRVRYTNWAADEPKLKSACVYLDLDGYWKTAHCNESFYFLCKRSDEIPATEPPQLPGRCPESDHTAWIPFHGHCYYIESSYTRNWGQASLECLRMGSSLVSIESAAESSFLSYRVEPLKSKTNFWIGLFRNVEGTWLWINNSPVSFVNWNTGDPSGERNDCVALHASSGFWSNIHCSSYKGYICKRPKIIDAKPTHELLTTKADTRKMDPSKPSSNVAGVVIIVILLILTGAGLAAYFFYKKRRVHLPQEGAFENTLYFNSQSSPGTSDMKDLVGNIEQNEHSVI
Description: immunofluorescence co-localization in human DCs.

B1: Pneumolysin (purified recombinant) (other)
chain: ANKAVNDFILAMNYDKKKLLTHQGESIENRFIKEGNQLPDEFVVIERKKRSLSTNTSDISVTATNDSRLYPGALLVVDETLLENNPTLLAVDRAPMTYSIDLPGLASSDSFLQVEDPSNSSVRGAVNDLLAKWHQDYGQVNNVPARMQYEKITAHSMEQLKVKFGSDFEKTGNSLDIDFNSVHSGEKQIQIVNFKQIYYTVSVDAVKNPGDVFQDTVTVEDLKQRGISAERPLVYISSVAYGRQVYLKLETTSKSDEVEAAFEALIKGVKVAPQTEWKQILDNTEVKAVILGGDPSSGARVVTGKVDMVEDLIQEGSRFTADHPGLPISYTTSFLRDNVVATFQNSTDYVETKVTAYRNGDLLLDHSGAYVAQYYITWNELSYDHQGKEVLTPKAWDRNGQDLTAHFTTSIPLKGNVRNLSVKIRECTGLAWEWWRTVYEKTDLPLVRKRTISIWGTTLYPQVEDKVEND
notes: also called PLY; Ply
Take B1: the binding result is on record as “binds”.

B2: LLO (W489F) toxoid (other)
chain: KDASAFNKENSISSMAPPASPPASPKTPIEKKHADEIDKYIQGLDYNKNNVLVYHGDAVTNVPPRKGYKDGNEYIVVEKKKKSINQNNADIQVVNAISSLTYPGALVKANSELVENQPDVLPVKRDSLTLSIDLPGMTNQDNKIVVKNATKSNVNNAVNTLVERWNEKYAQAYPNVSAKIDYDDEMAYSESQLIAKFGTAFKAVNNSLNVNFGAISEGKMQEEVISFKQIYYNVNVNEPTRPSRFFGKAVTKEQLQALGVNAENPPAYISSVAYGRQVYLKLSTNSHSTKVKAAFDAAVSGKSVSGDVELTNIIKNSSFKAVIYGGSAKDEVQIIDGNLGDLRDILKKGATFNRETPGVPIAYTTNFLKDNELAVIKNNSEYIETTSKAYTDGKINIDHSGGYVAQFNISWDEINYDPEGNEIVQHKNWSENNKSKLAHFTSSIYLPGNARNINVYAKECTGLAFEWWRTVIDDRNLPLVKNRNISIWGTTLYPKYSNSVDNPIE
As for B2, the binding result is reported as “no binding (tested: 0.2 µg/ml)”.
